{"source": "paper PMC5703901", "about": "“Rational design of cholesterol oxidase for efficient bioresolution of cholestane skeleton substrates” (Scientific Reports, 2017)", "test_in_all_cases": "peroxidase-coupled 4-aminoantipyrine/phenol H2O2 assay, OD500", "format_in_all_cases": "biochemical, Pimelobacter simplex", "details_in_all_cases": "25 mM phosphate pH 7.5, isopropanol and Triton X-100, temperature not stated for kinetics", "key": {"[1]": {"substrate": "CC(C)CCC[C@@H](C)[C@H]1CC[C@H]2[C@@H]3CC=C4C[C@@H](O)CC[C@]4(C)[C@H]3CC[C@]12C", "source_text": "(§1) peroxidase-coupled 4-aminoantipyrine/phenol H2O2 assay, OD500 on PsChO"}, "[2]": {"substrate": "CC[C@H](/C=C/[C@@H](C)[C@H]1CC[C@H]2[C@@H]3CC=C4C[C@@H](O)CC[C@]4(C)[C@H]3CC[C@]12C)C(C)C", "source_text": "as §1"}, "[3]": {"substrate": "C[C@]12CC[C@H](O)CC1=CC[C@@H]1[C@@H]2CC[C@]2(C)C(=O)CC[C@@H]12", "source_text": "as §1"}, "[4]": {"substrate": "[H][C@@]12CC=C3C[C@@H](O)CC[C@]3(C)[C@@]1([H])CC[C@@]1(C)[C@@]2([H])CC[C@]1([H])C(C)=O", "source_text": "as §1"}, "[5]": {"substrate": "[H][C@@]12CC=C3C[C@@H](O)CC[C@]3(C)[C@@]1([H])CC[C@@]1(C)[C@@]2([H])CC[C@]1([H])[C@H](C)CC[C@@H](CC)C(C)C", "source_text": "as §1"}}, "data": [{"protein": "PsChO (Pimelobacter simplex; V115C) (protein, wild-type gene in pET28a(+), E. coli BL21(DE3), His6-tagged, Ni-NTA purified; noncovalent FAD type; catalytic H431, E346, N469) VLVIGTGYGGAVAALRLAQAGVQVEMIEMGMSWDTPGSDGKIFAKVTSPDKRAYWLRTKTKAPCSNFFGFPIDATIPKYTGILDAEEFAGITVYQGRGVGGGSLVNGGMAVTPKQSRFSSILPSVDAAEMYATYYPRANAGLGVGSIDPAWFETAECYKYARVGRKHAQRSGFAWTFVPDVYDWNYMKAEQAGTVTRSALDGQVMYGNDHGKKSLVQTYLAQALATGRVNVSTLHQVTAVAPRSGGGYTVSIDQLDTSGNVVGTKSVTAGKVFFAAGSVGTSKLLTKLKATGSLPALNNEIGKGWGDNGNVMCGRANHMWDPTGSLQSTIPCSGIDNWDAGGAFAEVAPLPTGIETYASLYLSITNTTRRAEFSWNAAANKVDLSWQTAWKQDSINMAKTIFDKINSKEGTIYRTDLFGAYKVWQDGLTYHPLGGAVLNKATDNYGRLHGYNGLYVIDGALIPGNTTVNPFVTITALAERNIDNILANDI", "values": [{"measurement": "Km", "setting": "[1]", "result": "178.31 ± 1.38", "unit": "µM"}, {"measurement": "kcat", "setting": "[1]", "result": "23 ± 0.29", "unit": "s⁻¹"}, {"measurement": "kcat/Km", "setting": "[1]", "result": "130000 ± 500", "unit": "M⁻¹ s⁻¹"}, {"measurement": "Km", "setting": "[2]", "result": "528.84 ± 3.59", "unit": "µM"}, {"measurement": "kcat", "setting": "[2]", "result": "4.23 ± 0.19", "unit": "s⁻¹"}, {"measurement": "kcat/Km", "setting": "[2]", "result": "8000 ± 200", "unit": "M⁻¹ s⁻¹"}, {"measurement": "Km", "setting": "[3]", "result": "318.81 ± 3.25", "unit": "µM"}, {"measurement": "kcat", "setting": "[3]", "result": "9.56 ± 0.34", "unit": "s⁻¹"}, {"measurement": "kcat/Km", "setting": "[3]", "result": "30000 ± 500", "unit": "M⁻¹ s⁻¹"}, {"measurement": "Km", "setting": "[4]", "result": "228.42 ± 3.24", "unit": "µM"}, {"measurement": "kcat", "setting": "[4]", "result": "13.7 ± 0.31", "unit": "s⁻¹"}, {"measurement": "kcat/Km", "setting": "[4]", "result": "60000 ± 600", "unit": "M⁻¹ s⁻¹"}, {"measurement": "Km", "setting": "[5]", "result": "220.76 ± 3.14", "unit": "µM"}, {"measurement": "kcat", "setting": "[5]", "result": "13.2 ± 0.36", "unit": "s⁻¹"}, {"measurement": "kcat/Km", "setting": "[5]", "result": "60000 ± 700", "unit": "M⁻¹ s⁻¹"}]}, {"protein": "PsChO (Pimelobacter simplex) (protein, wild-type gene in pET28a(+), E. coli BL21(DE3), His6-tagged, Ni-NTA purified; noncovalent FAD type; catalytic H431, E346, N469) VLVIGTGYGGAVAALRLAQAGVQVEMIEMGMSWDTPGSDGKIFAKVTSPDKRAYWLRTKTKAPVSNFFGFPIDATIPKYTGILDAEEFAGITVYQGRGVGGGSLVNGGMAVTPKQSRFSSILPSVDAAEMYATYYPRANAGLGVGSIDPAWFETAECYKYARVGRKHAQRSGFAWTFVPDVYDWNYMKAEQAGTVTRSALDGQVMYGNDHGKKSLVQTYLAQALATGRVNVSTLHQVTAVAPRSGGGYTVSIDQLDTSGNVVGTKSVTAGKVFFAAGSVGTSKLLTKLKATGSLPALNNEIGKGWGDNGNVMCGRANHMWDPTGSLQSTIPCSGIDNWDAGGAFAEVAPLPTGIETYASLYLSITNTTRRAEFSWNAAANKVDLSWQTAWKQDSINMAKTIFDKINSKEGTIYRTDLFGAYKVWQDGLTYHPLGGAVLNKATDNYGRLHGYNGLYVIDGALIPGNTTVNPFVTITALAERNIDNILANDI", "values": [{"measurement": "Km", "setting": "[1]", "result": "204.85 ± 3.14", "unit": "µM"}, {"measurement": "kcat", "setting": "[1]", "result": "12.3 ± 0.32", "unit": "s⁻¹"}, {"measurement": "kcat/Km", "setting": "[1]", "result": "60000 ± 300", "unit": "M⁻¹ s⁻¹"}, {"measurement": "Km", "setting": "[2]", "result": "789.61 ± 4.71", "unit": "µM"}, {"measurement": "kcat", "setting": "[2]", "result": "1.58 ± 0.07", "unit": "s⁻¹"}, {"measurement": "kcat/Km", "setting": "[2]", "result": "2000 ± 100", "unit": "M⁻¹ s⁻¹"}, {"measurement": "Km", "setting": "[3]", "result": "341.21 ± 3.79", "unit": "µM"}, {"measurement": "kcat", "setting": "[3]", "result": "6.82 ± 0.14", "unit": "s⁻¹"}, {"measurement": "kcat/Km", "setting": "[3]", "result": "20000 ± 400", "unit": "M⁻¹ s⁻¹"}, {"measurement": "Km", "setting": "[4]", "result": "294.55 ± 2.97", "unit": "µM"}, {"measurement": "kcat", "setting": "[4]", "result": "11.8 ± 0.34", "unit": "s⁻¹"}, {"measurement": "kcat/Km", "setting": "[4]", "result": "40000 ± 500", "unit": "M⁻¹ s⁻¹"}, {"measurement": "Km", "setting": "[5]", "result": "328.61 ± 3.60", "unit": "µM"}, {"measurement": "kcat", "setting": "[5]", "result": "9.86 ± 0.35", "unit": "s⁻¹"}, {"measurement": "kcat/Km", "setting": "[5]", "result": "30000 ± 500", "unit": "M⁻¹ s⁻¹"}]}, {"protein": "PsChO (Pimelobacter simplex; F121V) (protein, wild-type gene in pET28a(+), E. coli BL21(DE3), His6-tagged, Ni-NTA purified; noncovalent FAD type; catalytic H431, E346, N469) VLVIGTGYGGAVAALRLAQAGVQVEMIEMGMSWDTPGSDGKIFAKVTSPDKRAYWLRTKTKAPVSNFFGVPIDATIPKYTGILDAEEFAGITVYQGRGVGGGSLVNGGMAVTPKQSRFSSILPSVDAAEMYATYYPRANAGLGVGSIDPAWFETAECYKYARVGRKHAQRSGFAWTFVPDVYDWNYMKAEQAGTVTRSALDGQVMYGNDHGKKSLVQTYLAQALATGRVNVSTLHQVTAVAPRSGGGYTVSIDQLDTSGNVVGTKSVTAGKVFFAAGSVGTSKLLTKLKATGSLPALNNEIGKGWGDNGNVMCGRANHMWDPTGSLQSTIPCSGIDNWDAGGAFAEVAPLPTGIETYASLYLSITNTTRRAEFSWNAAANKVDLSWQTAWKQDSINMAKTIFDKINSKEGTIYRTDLFGAYKVWQDGLTYHPLGGAVLNKATDNYGRLHGYNGLYVIDGALIPGNTTVNPFVTITALAERNIDNILANDI", "values": [{"measurement": "Km", "setting": "[1]", "result": "154.83 ± 3.31", "unit": "µM"}, {"measurement": "kcat", "setting": "[1]", "result": "15.5 ± 0.3", "unit": "s⁻¹"}, {"measurement": "kcat/Km", "setting": "[1]", "result": "100000 ± 400", "unit": "M⁻¹ s⁻¹"}, {"measurement": "Km", "setting": "[2]", "result": "384.12 ± 3.84", "unit": "µM"}, {"measurement": "kcat", "setting": "[2]", "result": "7.68 ± 0.27", "unit": "s⁻¹"}, {"measurement": "kcat/Km", "setting": "[2]", "result": "20000 ± 200", "unit": "M⁻¹ s⁻¹"}, {"measurement": "Km", "setting": "[3]", "result": "273.52 ± 2.13", "unit": "µM"}, {"measurement": "kcat", "setting": "[3]", "result": "13.7 ± 0.2", "unit": "s⁻¹"}, {"measurement": "kcat/Km", "setting": "[3]", "result": "50000 ± 600", "unit": "M⁻¹ s⁻¹"}, {"measurement": "Km", "setting": "[4]", "result": "190.61 ± 3.30", "unit": "µM"}, {"measurement": "kcat", "setting": "[4]", "result": "15.2 ± 0.22", "unit": "s⁻¹"}, {"measurement": "kcat/Km", "setting": "[4]", "result": "80000 ± 400", "unit": "M⁻¹ s⁻¹"}, {"measurement": "Km", "setting": "[5]", "result": "178.42 ± 1.61", "unit": "µM"}, {"measurement": "kcat", "setting": "[5]", "result": "16.1 ± 0.33", "unit": "s⁻¹"}, {"measurement": "kcat/Km", "setting": "[5]", "result": "90000 ± 800", "unit": "M⁻¹ s⁻¹"}]}]}
